Assay results: patent US20180256699A1 (University of Texas, published 2018)

Assays:
Experiment in all cases: ELISA, murine αMβ2 integrin coated, domain serially diluted
[1] = target: CAT400, catalytic domain of ACT, residues 1-400 (Bordetella pertussis, UniProt J7QLC0 1-400)
Experimental: (§1) To assess non-specific binding, control wells were not coated with αMβ₂ receptor but blocked with M-PBST only.
(§2) Recombinant murine αMβ₂ integrin (R&D Systems) was coated at 1 μg/mL in PBS at 4° C. overnight, and blocked with M-PBST.

[2] = target: HP1096, hydrophobic domain of ACT, residues 399-1096, MBP fusion, non-acylated (Bordetella pertussis, UniProt J7QLC0 399-1096)
Experimental: as §1, §2

[3] = target: HP1096*, hydrophobic domain of ACT, residues 399-1096, MBP fusion, acylated (Bordetella pertussis, UniProt J7QLC0 399-1096)
Experimental: as §1, §2

[4] = target: RTX985, RTX domain of ACT, residues 985-1706 (Bordetella pertussis, UniProt J7QLC0 985-1706)
Experimental: as §1, §2

Measured: binding result

B1: Recombinant soluble murine αMβ2 integrin (R&D Systems) (receptor)
chain 1: FNLDTEHPMTFQENAKGFGQNVVQLGGTSVVVAAPQEAKAVNQTGALYQCDYSTSRCHPIPLQVPPEAVNMSLGLSLAVSTVPQQLLACGPTVHQNCKENTYVNGLCYLFGSNLLRPPQQFPEALRECPQQESDIVFLIDGSGSINNIDFQKMKEFVSTVMEQFKKSKTLFSLMQYSDEFRIHFTFNDFKRNPSPRSHVSPIKQLNGRTKTASGIRKVVRELFHKTNGARENAAKILVVITDGEKFGDPLDYKDVIPEADRAGVIRYVIGVGNAFNKPQSRRELDTIASKPAGEHVFQVDNFEALNTIQNQLQEKIFAIEGTQTGSTSSFEHEMSQEGFSASITSNGPLLGSVGSFDWAGGAFLYTSKDKVTFINTTRVDSDMNDAYLGYASAVILRNRVQSLVLGAPRYQHIGLVVMFRENFGTWEPHTSIKGSQIGSYFGASLCSVDMDADGNTNLILIGAPHYYEKTRGGQVSVCPLPRGRARWQCEALLHGDQGHPWGRFGAALTVLGDVNGDKLTDVAIGAPGEQENQGAVYIFYGASIASLSASHSHRIIGAHFSPGLQYFGQSLSGGKDLTMDGLMDLAVGAQGHLLLLRAQPVLRLEATMEFSPKKVARSVFACQEQVLKNKDAGEVRVCLRVRKNTKDRLREGDIQSTVTYDLALDPVRSRIRAFFDETKNNTRRRTQVFGLMQKCETLKLILPDCVDDSVSPIILRLNYTLVGEPLRSFGNLRPVLAMDAQRFFTAMFPFEKNCGNDSICQDDLSITMSAMGLDTLVVGGPQDFNMSVTLRNDGEDSYGTQVTVYYPSGLSYRKDSASQNPLTKKPWFVKPAESSSSSEGHGALKSTTWNINHPIFPANSEVTFNVTFDVDSHASFGNKLLLKAIVASENNMSRTHKTKFQLELPVKYAIYMIVTSDESSIRYLNFTASEMTSKVIQHQYQFNNLGQRSLPVSVVFWIPVQINNVTVWDHPQVIFSQNLSSACHTEQKSPPHSNFRDQLERTPVLNCSVAVCKRIQCDLPSFNTQEIFNVTLKGNLSFDWYIKTSHGHLLLVSSTEILFNDSAFALLPGQESYVRSKTETKVEPYEVHN
chain 2: QECTKYKVSSCRDCIQSGPGCSWCQKLNFTGPGEPDSLRCDTRAQLLLKGCPADDIMDPRSIANPEFDQRGQRKQLSPQKVTLYLRPGQAAAFNVTFRRAKGYPIDLYYLMDLSYSMLDDLNNVKKLGGDLLQALNEITESGRIGFGSFVDKTVLPFVNTHPEKLRNPCPNKEKACQPPFAFRHVLKLTDNSNQFQTEVGKQLISGNLDAPEGGLDAIMQVAACPEEIGWRNVTRLLVFATDDGFHFAGDGKLGAILTPNDGRCHLEDNMYKRSNEFDYPSVGQLAHKLSESNIQPIFAVTKKMVKTYEKLTEIIPKSAVGELSDDSSNVVQLIKNAYYKLSSRVFLDHSTLPDTLKVTYDSFCSNGASSIGKSRGDCDGVQINNPVTFQVKVMASECIQEQSFVIRALGFTDTVTVQVRPQCECQCRDQSREQSLCGGKGVMECGICRCESGYIGKNCECQTQGRSSQELERNCRKDNSSIVCSGLGDCICGQCVCHTSDVPNKEIFGQYCECDNVNCERYNSQVCGGSDRGSCNCGKCSCKPGYEGSACQCQRSTTGCLNARLVECSGRGHCQCNRCICDEGYQPPMCEDCPSCGSHCRDNHTSCAECLKFDKGPFEKNCSVQCAGMTLQTIPLKKKPCKERDSEGCWITYTLQQKDGRNIYNIHVEDSLECVKGPN
notes: extracellular domain; also called αMβ2 receptor; soluble αMβ2 integrin
no binding: [1] | [2] | [3] | [4]
